Results on 18 molecules are retold here after patent publication US20120178668A1.

Common to all, as to experiment: cell-based or functional assay
Experiment [1] addresses Natriuretic Peptide Receptor-A (NPR-A) of MDCK cells (canine (endogenous in MDCK cells)).
For the next experiment, the target named is rat GC-A (rat) (UniProt P18910).
The next experiment deals with NPR-A of HeLa cells (UniProt P16066).
The next experiment has as its target T1, NPR-C (rat) (UniProt P41740).
T1 sequence: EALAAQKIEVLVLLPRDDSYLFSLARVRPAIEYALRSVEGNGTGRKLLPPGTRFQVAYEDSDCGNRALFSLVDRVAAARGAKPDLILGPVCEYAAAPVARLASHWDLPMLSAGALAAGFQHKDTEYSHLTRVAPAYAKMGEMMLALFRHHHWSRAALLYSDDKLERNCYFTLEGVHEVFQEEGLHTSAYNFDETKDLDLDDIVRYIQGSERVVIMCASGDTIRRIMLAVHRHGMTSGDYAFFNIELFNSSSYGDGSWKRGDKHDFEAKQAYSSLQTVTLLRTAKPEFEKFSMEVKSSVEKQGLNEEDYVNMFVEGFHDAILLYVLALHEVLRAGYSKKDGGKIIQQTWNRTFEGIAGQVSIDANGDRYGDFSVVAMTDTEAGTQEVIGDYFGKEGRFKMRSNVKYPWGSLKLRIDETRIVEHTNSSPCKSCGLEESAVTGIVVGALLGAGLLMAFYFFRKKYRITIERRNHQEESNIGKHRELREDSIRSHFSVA

A further experiment addresses T2, NPR-C (rat), P41740.
T2 chain: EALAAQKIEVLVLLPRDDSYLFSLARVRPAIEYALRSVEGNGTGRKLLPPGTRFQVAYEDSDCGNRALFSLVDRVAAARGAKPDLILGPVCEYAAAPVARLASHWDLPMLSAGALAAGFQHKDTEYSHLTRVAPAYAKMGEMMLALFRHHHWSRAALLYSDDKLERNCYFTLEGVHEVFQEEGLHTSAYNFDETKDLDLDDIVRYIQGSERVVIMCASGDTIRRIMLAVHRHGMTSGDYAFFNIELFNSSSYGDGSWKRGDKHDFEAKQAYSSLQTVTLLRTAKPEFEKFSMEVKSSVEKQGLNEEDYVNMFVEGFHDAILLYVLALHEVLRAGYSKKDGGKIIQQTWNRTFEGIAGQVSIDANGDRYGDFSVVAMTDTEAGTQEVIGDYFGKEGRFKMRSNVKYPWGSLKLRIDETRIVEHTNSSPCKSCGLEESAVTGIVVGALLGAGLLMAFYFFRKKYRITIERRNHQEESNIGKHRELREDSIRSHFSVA

With “rANP (from UniProt P01161 123-150) (peptide)”, in experiment [1], the -Log10 EC50 (pEC50) of cGMP accumulation in MDCK cells was determined as 8.76 and the EC50 of cGMP accumulation in MDCK cells came out at 8.47 nM.

Turning to K7-TNPc (peptide), in the experiment with rat GC-A (rat), the mean relaxation of denuded aortic rings, % of KCl response (% of KCl response) was 46.1 and the relaxation of denuded aortic rings came to 50%. Besides, in experiment [1], the -Log10 EC50 (pEC50) of cGMP accumulation in MDCK cells is 7.44 and the EC50 of cGMP accumulation in MDCK cells was 52.8 nM.

In the case of CHA10-TNPc (peptide), the mean relaxation of denuded aortic rings, % of KCl response (% of KCl response) with rat GC-A (rat) came to 64.2. Also, in experiment [1], the -Log10 EC50 (pEC50) of cGMP accumulation in MDCK cells was determined as 7.84 and the EC50 of cGMP accumulation in MDCK cells turned out to be 14.4 nM.

In experiment [1], N7D-TNPc (peptide) came in with a -Log10 EC50 (pEC50) of cGMP accumulation in MDCK cells of 7.58 and an EC50 of cGMP accumulation in MDCK cells of 26.2 nM.

With S6, K7-TNPc (peptide), the mean relaxation of denuded aortic rings, % of KCl response (% of KCl response) in the experiment with rat GC-A (rat) turned out to be 43.8. In experiment [1], this molecule came in with a -Log10 EC50 (pEC50) of cGMP accumulation in MDCK cells of 7.57 and an EC50 of cGMP accumulation in MDCK cells of 52.4 nM.

The molecule S6, A7-TNPc (peptide) returned a mean relaxation of denuded aortic rings, % of KCl response (% of KCl response) with rat GC-A (rat) of 43.1. In experiment [1], this molecule gave a -Log10 EC50 (pEC50) of cGMP accumulation in MDCK cells of 6.9 and an EC50 of cGMP accumulation in MDCK cells of 169 nM.

R32-TNPc (peptide) gave a mean relaxation of denuded aortic rings, % of KCl response (% of KCl response) with rat GC-A (rat) of 66.4. Besides, in experiment [1], the -Log10 EC50 (pEC50) of cGMP accumulation in MDCK cells came to 7.68 and the EC50 of cGMP accumulation in MDCK cells turned out to be 99.1 nM.

In the experiment with NPR-A of HeLa cells, hBNP (peptide) displayed a -Log10EC50 (pEC50) of cGMP accumulation in HeLa cells of 6.92 and an EC50 of cGMP accumulation in HeLa cells of 147 nM. For the same molecule, in experiment [1], the -Log10 EC50 (pEC50) of cGMP accumulation in MDCK cells came out at 9.16 and the EC50 of cGMP accumulation in MDCK cells came out at 0.906 nM.

In experiment [1], PNP (peptide) had a -Log10 EC50 (pEC50) of cGMP accumulation in MDCK cells of 6.66 and an EC50 of cGMP accumulation in MDCK cells of 347 nM.

The molecule A7-TNPc (peptide) had a mean relaxation of denuded aortic rings, % of KCl response (% of KCl response) with rat GC-A (rat) of 32.9. In experiment [1], this molecule registered a -Log10 EC50 (pEC50) of cGMP accumulation in MDCK cells of 6.87 and an EC50 of cGMP accumulation in MDCK cells of 161 nM.

Take DNP (peptide): in the experiment with NPR-A of HeLa cells, the -Log10EC50 (pEC50) of cGMP accumulation in HeLa cells was 9.42 and the EC50 of cGMP accumulation in HeLa cells stood at 0.392 nM. For the same molecule, in the experiment with rat GC-A (rat), the relaxation of KCl pre-contracted endothelium-denuded rat aortic rings was found to be 100%. In experiment [1], the -Log10 EC50 (pEC50) of cGMP accumulation in MDCK cells came to 8.08 and the EC50 of cGMP accumulation in MDCK cells came out at 1850 nM. In the experiment with NPR-C (rat), the relaxation of KCl pre-contracted endothelium-intact rat aortic rings stood at 100%.

As to P28-TNPc (peptide), the mean relaxation of denuded aortic rings, % of KCl response (% of KCl response) with rat GC-A (rat) was found to be 52.6. In experiment [1], this molecule yielded a -Log10 EC50 (pEC50) of cGMP accumulation in MDCK cells of 6 and an EC50 of cGMP accumulation in MDCK cells of 1190 nM.

As for hANP (peptide), in the experiment with rat GC-A (rat), the mean relaxation of denuded aortic rings, % of KCl response (% of KCl response) is 66.5 and the relaxation of KCl pre-contracted endothelium-denuded rat aortic rings was determined as 100%. In experiment [1], this molecule registered a -Log10 EC50 (pEC50) of cGMP accumulation in MDCK cells of 8.79 and an EC50 of cGMP accumulation in MDCK cells of 16.4 nM. The relaxation of KCl pre-contracted endothelium-intact rat aortic rings with NPR-C (rat) was determined as 100%.

In the experiment with rat GC-A (rat), R18-TNPc (peptide) displayed a mean relaxation of denuded aortic rings, % of KCl response (% of KCl response) of 0.5. In experiment [1], this molecule yielded a -Log10 EC50 (pEC50) of cGMP accumulation in MDCK cells of 6.78 and an EC50 of cGMP accumulation in MDCK cells of 700 nM.

Nle29-TNPc (peptide) registered a mean relaxation of denuded aortic rings, % of KCl response (% of KCl response) in the experiment with rat GC-A (rat) of 61. In addition, in experiment [1], the -Log10 EC50 (pEC50) of cGMP accumulation in MDCK cells stood at 6.5 and the EC50 of cGMP accumulation in MDCK cells was 399 nM.

As to Lebetin 2 isoform α (peptide), in experiment [1], the -Log10 EC50 (pEC50) of cGMP accumulation in MDCK cells came out at 7.64 and the EC50 of cGMP accumulation in MDCK cells is 26.8 nM.

In turn, SDSKIGDGCFGLPLDHIGSVSGLGCNRPVQNRPKK (modifications not checked) [TNPa] registered a relaxation of KCl pre-contracted endothelium-intact rat aortic rings in the experiment with NPR-C (rat), P41740 of 20%.

SDPKIGDGCFGLPLDHIGSVSGLGCNRPVQNRPKK (modifications not checked) [TNPb]: the relaxation of KCl pre-contracted endothelium-intact rat aortic rings in the experiment with NPR-C (rat), P41740 worked out at 20%.
